Results: publication PMC7802366 (The Journal of Cell Biology, 2021)

Key:
[1] = biological target: p150^GLUED subunit of dynactin, endogenous (human (endogenous in HEK-293), UniProt Q14203-1 1-1278); experiment: pull-down
[2] = biological target: dynein heavy chain (DHC), native (human (endogenous in HEK-293), UniProt Q14204 1-4646); experiment: pull-down

p150^GLUED subunit of dynactin, endogenous, sequence (Q14203 whole entry): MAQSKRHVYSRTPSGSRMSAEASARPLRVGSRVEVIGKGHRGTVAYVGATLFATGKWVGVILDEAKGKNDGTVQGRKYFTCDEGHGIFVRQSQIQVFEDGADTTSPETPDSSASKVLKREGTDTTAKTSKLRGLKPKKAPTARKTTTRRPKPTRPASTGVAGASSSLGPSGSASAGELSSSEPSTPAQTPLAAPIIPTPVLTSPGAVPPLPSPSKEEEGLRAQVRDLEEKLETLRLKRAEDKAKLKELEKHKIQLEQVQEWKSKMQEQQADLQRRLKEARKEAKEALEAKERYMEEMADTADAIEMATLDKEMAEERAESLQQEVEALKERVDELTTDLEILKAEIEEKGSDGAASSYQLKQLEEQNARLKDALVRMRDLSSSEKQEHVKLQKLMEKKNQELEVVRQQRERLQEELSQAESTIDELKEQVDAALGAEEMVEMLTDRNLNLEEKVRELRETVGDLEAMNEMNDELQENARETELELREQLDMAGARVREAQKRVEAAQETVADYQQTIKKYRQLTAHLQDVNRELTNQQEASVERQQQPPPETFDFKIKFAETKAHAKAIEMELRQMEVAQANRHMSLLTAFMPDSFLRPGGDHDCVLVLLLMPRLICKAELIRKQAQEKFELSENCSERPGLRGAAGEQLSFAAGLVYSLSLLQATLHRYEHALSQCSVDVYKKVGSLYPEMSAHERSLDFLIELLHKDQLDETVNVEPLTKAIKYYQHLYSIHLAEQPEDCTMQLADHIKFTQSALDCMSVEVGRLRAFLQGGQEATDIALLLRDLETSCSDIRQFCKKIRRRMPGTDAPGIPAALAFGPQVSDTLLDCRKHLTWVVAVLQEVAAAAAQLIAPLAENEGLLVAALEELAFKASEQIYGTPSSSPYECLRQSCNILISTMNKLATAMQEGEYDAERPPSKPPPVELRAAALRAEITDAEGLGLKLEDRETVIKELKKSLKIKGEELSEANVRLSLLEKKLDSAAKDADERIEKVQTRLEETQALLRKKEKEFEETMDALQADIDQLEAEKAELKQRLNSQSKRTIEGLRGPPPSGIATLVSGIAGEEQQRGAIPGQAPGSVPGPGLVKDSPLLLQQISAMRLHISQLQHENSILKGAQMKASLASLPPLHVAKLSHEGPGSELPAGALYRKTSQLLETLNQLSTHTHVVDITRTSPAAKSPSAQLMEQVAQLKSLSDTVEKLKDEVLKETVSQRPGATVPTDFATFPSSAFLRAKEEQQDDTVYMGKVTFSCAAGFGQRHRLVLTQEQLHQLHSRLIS

B1: His-SEPT9 NTE domain (aa 1–283) (domain or fragment, human, UniProt Q9UHD8-1 1-283, looked up)
chain: MKKSYSGGTRTSSGRLRRLGDSSGPALKRSFEVEEVETPNSTPPRRVQTPLLRATVASSTQKFQDLGVKNSEPSARHVDSLSQRSPKASLRRVELSGPKAAEPVSRRTELSIDISSKQVENAGAIGPSRFGLKRAEVLGHKTPEPAPRRTEITIVKPQESAHRRMEPPASKVPEVPTAPATDAAPKRVEIQMPKPAEAPTAPSPAQTLENSEPAPVSQLQSRLEPKPQPPVAEATPRSQEATEAAPSCVGDMADTPRDAGLKQAPASRNEKAPVDFGYVGIDS
binding result [1]: binds

B2: His-SEPT9 (recombinant full-length SEPT9 isoform 1) (natural protein, human, UniProt Q9UHD8-1 1-586, looked up)
chain: MKKSYSGGTRTSSGRLRRLGDSSGPALKRSFEVEEVETPNSTPPRRVQTPLLRATVASSTQKFQDLGVKNSEPSARHVDSLSQRSPKASLRRVELSGPKAAEPVSRRTELSIDISSKQVENAGAIGPSRFGLKRAEVLGHKTPEPAPRRTEITIVKPQESAHRRMEPPASKVPEVPTAPATDAAPKRVEIQMPKPAEAPTAPSPAQTLENSEPAPVSQLQSRLEPKPQPPVAEATPRSQEATEAAPSCVGDMADTPRDAGLKQAPASRNEKAPVDFGYVGIDSILEQMRRKAMKQGFEFNIMVVGQSGLGKSTLINTLFKSKISRKSVQPTSEERIPKTIEIKSITHDIEEKGVRMKLTVIDTPGFGDHINNENCWQPIMKFINDQYEKYLQEEVNINRKKRIPDTRVHCCLYFIPATGHSLRPLDIEFMKRLSKVVNIVPVIAKADTLTLEERVHFKQRITADLLSNGIDVYPQKEFDEDSEDRLVNEKFREMIPFAVVGSDHEYQVNGKRILGRKTKWGTIEVENTTHCEFAYLRDLLIRTHMQNIKDITSSIHFEAYRVKRLNEGSSAMANGMEEKEPEAPEM
binding result [2]: binds | binding result [1]: binds

B3: His-SEPT9 G domain (aa 283–586) (domain or fragment, human, UniProt Q9UHD8-1 283-586, looked up)
chain: SILEQMRRKAMKQGFEFNIMVVGQSGLGKSTLINTLFKSKISRKSVQPTSEERIPKTIEIKSITHDIEEKGVRMKLTVIDTPGFGDHINNENCWQPIMKFINDQYEKYLQEEVNINRKKRIPDTRVHCCLYFIPATGHSLRPLDIEFMKRLSKVVNIVPVIAKADTLTLEERVHFKQRITADLLSNGIDVYPQKEFDEDSEDRLVNEKFREMIPFAVVGSDHEYQVNGKRILGRKTKWGTIEVENTTHCEFAYLRDLLIRTHMQNIKDITSSIHFEAYRVKRLNEGSSAMANGMEEKEPEAPEM
binding result [2]: binds | binding result [1]: binds
